{
  "source": "patent US5876717A",
  "about": "(Ajinomoto Co., Inc., dated 1999)",
  "molecules": {"B1": {"name": "Fv(TU27): single chain polypeptide of 240 amino acids consisting only of V regions of TU27 anti-IL-2 receptor β chain antibody (protein)", "scFv": "MDILLTQSPAILSVSPGERVSFSCRASQSIGTSIHWYQQRTNGSPRLLIKYASESLSGIPSRFSGSGSGTDFTLSITSVDSEDIADYYCQQTNSWPTTFGGGTKLELKVDKSSGSGSESKSTQVKLEESGPGLVKPSQSLSLTCTVTGYPITSDYAWDWIRQFPGNKLEWMGYVSYSGSTDYNPSLKSRISISRDTSKNQFFLQLNSVTTEDTATYYCARGGFPYAMDYWGQGTTVTVSS"}, "B2": {"name": "polypeptide Fv(TU25) (scFv)", "scFv": "MDIQLTQSPAILSVSPGERVSFSCRASQTIGTSIHWYQQRTNGSPRLLIKYASESISGIPSRFSGSGSGTDFTLSINNVESEDIADYYCQQTNTWPTTFGSGTKLELKVDKSSGSGSESKSTQVKLEQSGGGLVKPGGSLKLSCAASGFAFSSYDMSWVRQTPEKRLNWVATFSSDGSDTDYPDSVKGRFTISRDNARNTLYLQMSSLRSEDTALYYCARGYPYAMDYWGQGTTVTVSS"}},
  "key": {"[1]": {"system": "β chain of IL-2 receptor on the surface of each YT cell", "assay": "Inhibition of binding of 125I-labelled TU27 or TU25 antibody to YT cells", "parameters": "species or system human", "conditions": "4° C.", "method": "(§1) In an RPMI-1640 culture medium containing 0.5% BSA and 0.02% NaN2 there were suspended 5×10^5 YT cells to which were added polypeptide Fv(TU27), TU27 antibody, polypeptide Fv(TU25) and TU25 antibody diluted with the same type culture medium to an appropriate concentration and then reacted for one hour at 4° C. Then a TU27 or TU25 antibody labelled with ^125 I according to the chloramine T method was added to the mixture which was subjected to a 2 hour reaction at 4° C., after which the radioactivity bound to cell surfaces was measured."}, "β chain of IL-2 receptor": {"system": "β chain of IL-2 receptor", "assay": "Inhibition of binding of 125I-labelled IL-2 to MOLT4 cells transfected with cDNA for the β chain of IL-2 receptor", "parameters": "species or system human", "conditions": "4° C.", "method": "To the resulting suspension were added polypeptide Fv(TU27), TU27 monoclonal antibody (originating in hybridoma FERM BP-2510), polypeptide Fv(TU25) and TU25 monoclonal antibody (originating in hybridoma FERM BP-3529) diluted with the same type culture medium to an appropriate concentration, and this was reacted for one hour at 4° C."}, "[2]": {"molecular_target": "β chain of human IL-2 receptor (human, UniProt P14784)", "assay": "competition with 125I-labelled TU27 or TU25 antibody on YT cells", "method": "as §1, with “NaN_2” for “NaN2”, “^125I” for “^125 I”"}},
  "data": [
    {"molecule": "B1", "values": [
      {"measurement": "activity to inhibit the binding between TU27 or TU25 monoclonal antibody and the β chain of IL-2 receptor", "setting": "[1]", "value": "have activity to inhibit the binding"},
      {"measurement": "activity to inhibit the binding of IL-2 to a β chain of an IL-2 receptor", "setting": "β chain of IL-2 receptor", "value": "have activity to inhibit the binding of IL-2"}
    ]},
    {"molecule": "B2", "values": [
      {"measurement": "activity to inhibit the binding between TU27 or TU25 monoclonal antibody and the β chain of IL-2 receptor", "setting": "[1]", "value": "have activity to inhibit the binding"},
      {"measurement": "activity to inhibit the binding of IL-2 to a β chain of an IL-2 receptor", "setting": "β chain of IL-2 receptor", "value": "have activity to inhibit the binding of IL-2"},
      {"measurement": "binding result", "setting": "[2]", "value": "binds"}
    ]}
  ]
}
